We go through 5 molecules from patent US5985583, “Cloning and expression of gonadotropin-releasing hormone receptor” (Mount Sinai School of Medicine of The City University of …, dated 1999).

For assay [1], the target named is human gonadotropin-releasing hormone receptor (GnRH-R), clone LC27-4 (human).
The target is the same in assay [2]. The assay is described as follows: Kd derived by the filing from the IC50 of inhibition of GnRH-stimulated inositol phosphate production in COS-1 cells expressing the human GnRH-R.
Assay [3] addresses T1, mouse gonadotropin-releasing hormone receptor (GnRH-R), clone WZ25 (mouse).
T1 chain: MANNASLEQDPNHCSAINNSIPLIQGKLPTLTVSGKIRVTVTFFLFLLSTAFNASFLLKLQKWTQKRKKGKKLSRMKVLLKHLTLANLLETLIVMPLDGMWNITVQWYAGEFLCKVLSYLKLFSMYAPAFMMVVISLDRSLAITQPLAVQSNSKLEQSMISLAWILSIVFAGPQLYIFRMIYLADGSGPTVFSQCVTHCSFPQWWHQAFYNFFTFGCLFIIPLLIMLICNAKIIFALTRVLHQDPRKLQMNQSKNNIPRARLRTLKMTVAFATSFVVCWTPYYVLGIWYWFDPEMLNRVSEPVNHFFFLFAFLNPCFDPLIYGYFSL
Put plainly: displacement of 125I-GnRH-A by GnRH-A, αT3-1 cell membranes (endogenous mouse receptor). (In general: In a radioligand displacement assay an active substance lowers the binding of a labelled ligand.)

In assay [4] the target is T1, mouse gonadotropin-releasing hormone …. The assay is described as follows: displacement of 125I-GnRH-A by GnRH-A, membranes of WZ25 RNA-injected oocytes. As for the experimental part:
(§1) For membrane preparation, 500 oocytes were each injected with 2.5 ng synthetic WZ25 RNA. After 48 hours, oocyte membranes were prepared as described (Kobilka et al., 1987, J. Biol. Chem. 262: 15796–15802) and resuspended in binding buffer containing 10 mM HEPES, 1 mM EDTA, and 0.1% bovine serum albumin to give a final concentration of 20 oocytes/ml.
(§2) To further characterize the receptor encoded by this cDNA clone, radioligand binding assays were performed on membranes purified from oocytes injected with the WZ25 RNA transcript.

The target in assay [5] is T2, human gonadotropin-releasing hormone receptor (GnRH-R), clone LC27-4 (human).
T2 chain: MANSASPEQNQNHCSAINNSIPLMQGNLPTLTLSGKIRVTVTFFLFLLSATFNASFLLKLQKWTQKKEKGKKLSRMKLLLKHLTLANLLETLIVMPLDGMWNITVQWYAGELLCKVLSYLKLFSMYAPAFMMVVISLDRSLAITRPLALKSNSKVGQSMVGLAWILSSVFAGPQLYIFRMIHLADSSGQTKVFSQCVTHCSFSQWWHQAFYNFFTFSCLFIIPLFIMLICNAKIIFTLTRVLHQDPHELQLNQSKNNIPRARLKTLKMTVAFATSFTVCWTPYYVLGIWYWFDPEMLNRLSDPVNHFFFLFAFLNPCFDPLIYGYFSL
Put plainly: displacement of 125I-GnRH-A, membranes of COS-1 cells transfected with the human GnRH-R. As for the experimental part:
(§3) For studies on inositol phosphate production, 1.8 ×10^5 cells/well (12-well plates) were transfected with 1.5 μg DNA. Cells were assayed 48 hours after transfection.
Cell membranes were prepared from transfected cells with a single centrifugation step as described for rat pituitaries (Millar et al., 1989, J. Biol. Chem. 264:21007–21013).

Assay [6] deals with T1, mouse gonadotropin-releasing hormone …. The assay is described as follows: displacement of 125I-GnRH-A by GnRH, membranes of WZ25 RNA-injected oocytes. As for the experimental part:
as §1, §2

The target of assay [7] is T2, human gonadotropin-releasing hormone …. Put plainly: Kd derived by the filing from the IC50 of inhibition of GnRH-stimulated inositol phosphate production in COS-1 cells expressing the human GnRH-R. As for the experimental part:
as §3

Non-standard residues stand in square brackets, D forms with d. No end group written: not given here. d(pGlu) = O=C1CC[C@H](C(=O)O)N1; NMeL = CN[C@@H](CC(C)C)C(=O)O

In assay [1], “gonadotropin-releasing hormone (GnRH) (from UniProt P01148) (peptide)” came in with an EC50 of inositol phosphate production in COS-1 cells transfected with pSV2A-human GnRH-R of 3 nM and an inositol phosphate production in COS-1 cells transfected with pSV2A-human GnRH-R of 8 fold.

In general, Kd refers to the equilibrium constant for the complex coming apart. Read a low Kd as tighter binding. “antagonist 13: [Ac-D-NaI1,D-α-4-ClPhe2, D-Pal3,D-Arg6, D-Ala10]GnRH (from UniProt P01148) (peptide)” returned an IC50 of inhibition of GnRH-stimulated (10-8 M) inositol phosphate production in COS-1 cells transfected with pSV2A-human GnRH-R in assay [1] of 6.7e-09 M. The Kd in assay [2] turned out to be 0.21 nM.

In the case of QHWSY[dA][NMeL]RP-NHEt (ends and bridges not checked; also: 125I label on the tracer form) [[D-Ala6, NαMe-Leu7, Pro9-NHEt]GnRH (GnRH-A)], the Kd in assay [3] worked out at 2.9 nM; in assay [4], 4.5 nM; in assay [5], 0.97 nM.

For QHWSYGLRPG [gonadotropin-releasing hormone (GnRH)], the binding result in assay [6] is “binds”.

On to [d(pGlu)][dF][dW]SY[dW]LRPG (ends and bridges not checked) [antagonist 5: [D-pGlu1,D-Phe2,D-Trp3,6]GnRH], for which the IC50 of inhibition of GnRH-stimulated (10-8 M) inositol phosphate production in COS-1 cells transfected with pSV2A-human GnRH-R in assay [1] was 1.05e-07 M. For the same molecule, the results for the Kd in assay [7] and in assay [5] were 3.6 nM and 8.4 nM, respectively.
